Starred links: 1 amine or outer side, 2 acyl side, 3 side chain; linkers in the order of their positions; H or OH if unused. Positions of bridges follow the written chain, without caps; N, C: chain ends. *: point of attachment. C20 diacid = O=C(O)CCCCCCCCCCCCCCCCCCC(=O)*; γGlu = O=C(O)[C@H](CCC(=O)[*:2])N[*:1]
T1: human amylin 3(a) receptor (human calcitonin receptor + RAMP-3) (human, UniProt P30988 25-474; O60896 24-148)
T1 sequence (looked up) 1: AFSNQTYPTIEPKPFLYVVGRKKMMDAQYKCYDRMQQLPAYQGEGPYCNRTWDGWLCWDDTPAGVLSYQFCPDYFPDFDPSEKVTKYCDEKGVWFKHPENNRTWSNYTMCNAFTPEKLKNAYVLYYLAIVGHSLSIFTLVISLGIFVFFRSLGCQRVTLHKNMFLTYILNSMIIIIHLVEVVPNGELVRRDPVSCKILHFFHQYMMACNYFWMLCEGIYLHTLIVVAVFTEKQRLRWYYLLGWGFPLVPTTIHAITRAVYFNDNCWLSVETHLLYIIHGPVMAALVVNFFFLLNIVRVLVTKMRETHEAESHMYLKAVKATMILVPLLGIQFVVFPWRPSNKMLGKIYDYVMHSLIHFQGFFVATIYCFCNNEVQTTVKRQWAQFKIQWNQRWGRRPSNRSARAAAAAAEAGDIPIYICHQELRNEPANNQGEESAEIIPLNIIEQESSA
T1 sequence (looked up) 2: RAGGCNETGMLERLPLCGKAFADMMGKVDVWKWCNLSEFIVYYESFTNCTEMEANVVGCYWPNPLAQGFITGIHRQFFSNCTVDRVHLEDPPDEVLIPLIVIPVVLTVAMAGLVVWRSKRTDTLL

T2: human calcitonin (a) receptor (human, UniProt P30988 25-474)
T2 sequence (looked up): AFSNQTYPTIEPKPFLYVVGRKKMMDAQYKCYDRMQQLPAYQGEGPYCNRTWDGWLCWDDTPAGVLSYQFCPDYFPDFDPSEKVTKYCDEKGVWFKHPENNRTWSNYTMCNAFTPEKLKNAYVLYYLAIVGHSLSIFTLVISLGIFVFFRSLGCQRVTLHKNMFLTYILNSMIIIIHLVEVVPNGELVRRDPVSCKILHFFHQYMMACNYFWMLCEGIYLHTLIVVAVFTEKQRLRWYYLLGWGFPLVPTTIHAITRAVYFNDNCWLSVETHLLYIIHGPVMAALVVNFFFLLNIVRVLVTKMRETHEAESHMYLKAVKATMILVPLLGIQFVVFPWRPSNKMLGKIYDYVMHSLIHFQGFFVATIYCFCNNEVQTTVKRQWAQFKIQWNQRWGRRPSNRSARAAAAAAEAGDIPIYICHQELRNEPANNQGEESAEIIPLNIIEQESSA


Tests used:
[1] = target: T1, human amylin 3(a) receptor (human …); experiment: cell-based or functional assay
[2] = target: T2, human calcitonin (a) receptor; experiment: cell-based or functional assay

Row | Amylin receptor human EC50 [1] | CTa receptor human EC50 [2] | Binder
1 | 232 pM | 1130 pM | {C20 diacid-γGlu}-ERECNTATCATQRLAEFLRHSSQNFGPILPPTNVGSNTP-NH2 (disulfide 4-9; SMILES CC[C@H](C)[C@H](NC(=O)[C@@H]1CCCN1C(=O)CNC(=O)[C@H](Cc1ccccc1)NC(=O)[C@H](CC(N)=O)NC(=O)[C@H](CCC(N)=O)NC(=O)[C@H](CO)NC(=O)[C@H](CO)NC(=O)[C@H](Cc1c[nH]cn1)NC(=O)[C@H](CCCNC(=N)N)NC(=O)[C@H](CC(C)C)NC(=O)[C@H](Cc1ccccc1)NC(=O)[C@H](CCC(=O)O)NC(=O)[C@H](C)NC(=O)[C@H](CC(C)C)NC(=O)[C@H](CCCNC(=N)N)NC(=O)[C@H](CCC(N)=O)NC(=O)[C@@H](NC(=O)[C@H](C)NC(=O)[C@@H]1CSSC[C@H](NC(=O)[C@H](CCC(=O)O)NC(=O)[C@H](CCCNC(=N)N)NC(=O)[C@H](CCC(=O)O)NC(=O)CC[C@H](NC(=O)CCCCCCCCCCCCCCCCCCC(=O)O)C(=O)O)C(=O)N[C@@H](CC(N)=O)C(=O)N[C@@H]([C@@H](C)O)C(=O)N[C@@H](C)C(=O)N[C@@H]([C@@H](C)O)C(=O)N1)[C@@H](C)O)C(=O)N[C@@H](CC(C)C)C(=O)N1CCC[C@H]1C(=O)N1CCC[C@H]1C(=O)N[C@H](C(=O)N[C@@H](CC(N)=O)C(=O)N[C@H](C(=O)NCC(=O)N[C@@H](CO)C(=O)N[C@@H](CC(N)=O)C(=O)N[C@H](C(=O)N1CCC[C@H]1C(N)=O)[C@@H](C)O)C(C)C)[C@@H](C)O)
2 | 313 pM | 526 pM | {C20 diacid-γGlu}-EERCNTATCATQRLAEFLRHSSNNFGPILPPTNVGSNTP-NH2 (disulfide 4-9; SMILES CC[C@H](C)[C@H](NC(=O)[C@@H]1CCCN1C(=O)CNC(=O)[C@H](Cc1ccccc1)NC(=O)[C@H](CC(N)=O)NC(=O)[C@H](CC(N)=O)NC(=O)[C@H](CO)NC(=O)[C@H](CO)NC(=O)[C@H](Cc1c[nH]cn1)NC(=O)[C@H](CCCNC(=N)N)NC(=O)[C@H](CC(C)C)NC(=O)[C@H](Cc1ccccc1)NC(=O)[C@H](CCC(=O)O)NC(=O)[C@H](C)NC(=O)[C@H](CC(C)C)NC(=O)[C@H](CCCNC(=N)N)NC(=O)[C@H](CCC(N)=O)NC(=O)[C@@H](NC(=O)[C@H](C)NC(=O)[C@@H]1CSSC[C@H](NC(=O)[C@H](CCCNC(=N)N)NC(=O)[C@H](CCC(=O)O)NC(=O)[C@H](CCC(=O)O)NC(=O)CC[C@H](NC(=O)CCCCCCCCCCCCCCCCCCC(=O)O)C(=O)O)C(=O)N[C@@H](CC(N)=O)C(=O)N[C@@H]([C@@H](C)O)C(=O)N[C@@H](C)C(=O)N[C@@H]([C@@H](C)O)C(=O)N1)[C@@H](C)O)C(=O)N[C@@H](CC(C)C)C(=O)N1CCC[C@H]1C(=O)N1CCC[C@H]1C(=O)N[C@H](C(=O)N[C@@H](CC(N)=O)C(=O)N[C@H](C(=O)NCC(=O)N[C@@H](CO)C(=O)N[C@@H](CC(N)=O)C(=O)N[C@H](C(=O)N1CCC[C@H]1C(N)=O)[C@@H](C)O)C(C)C)[C@@H](C)O)
3 | 1130 pM | 1190 pM | {C20 diacid-γGlu}-EERCNTATCATQRLAEFLRHSSQNFGPILPPTNVGSQTP-NH2 (disulfide 4-9; SMILES CC[C@H](C)[C@H](NC(=O)[C@@H]1CCCN1C(=O)CNC(=O)[C@H](Cc1ccccc1)NC(=O)[C@H](CC(N)=O)NC(=O)[C@H](CCC(N)=O)NC(=O)[C@H](CO)NC(=O)[C@H](CO)NC(=O)[C@H](Cc1c[nH]cn1)NC(=O)[C@H](CCCNC(=N)N)NC(=O)[C@H](CC(C)C)NC(=O)[C@H](Cc1ccccc1)NC(=O)[C@H](CCC(=O)O)NC(=O)[C@H](C)NC(=O)[C@H](CC(C)C)NC(=O)[C@H](CCCNC(=N)N)NC(=O)[C@H](CCC(N)=O)NC(=O)[C@@H](NC(=O)[C@H](C)NC(=O)[C@@H]1CSSC[C@H](NC(=O)[C@H](CCCNC(=N)N)NC(=O)[C@H](CCC(=O)O)NC(=O)[C@H](CCC(=O)O)NC(=O)CC[C@H](NC(=O)CCCCCCCCCCCCCCCCCCC(=O)O)C(=O)O)C(=O)N[C@@H](CC(N)=O)C(=O)N[C@@H]([C@@H](C)O)C(=O)N[C@@H](C)C(=O)N[C@@H]([C@@H](C)O)C(=O)N1)[C@@H](C)O)C(=O)N[C@@H](CC(C)C)C(=O)N1CCC[C@H]1C(=O)N1CCC[C@H]1C(=O)N[C@H](C(=O)N[C@@H](CC(N)=O)C(=O)N[C@H](C(=O)NCC(=O)N[C@@H](CO)C(=O)N[C@@H](CCC(N)=O)C(=O)N[C@H](C(=O)N1CCC[C@H]1C(N)=O)[C@@H](C)O)C(C)C)[C@@H](C)O)
4 | 66 pM | 168 pM | {C20 diacid-γGlu}-ERCNTATCATQRLAEFLRHSSNNFGPILPPTNVGSNTP-NH2 (disulfide 3-8; SMILES CC[C@H](C)[C@H](NC(=O)[C@@H]1CCCN1C(=O)CNC(=O)[C@H](Cc1ccccc1)NC(=O)[C@H](CC(N)=O)NC(=O)[C@H](CC(N)=O)NC(=O)[C@H](CO)NC(=O)[C@H](CO)NC(=O)[C@H](Cc1c[nH]cn1)NC(=O)[C@H](CCCNC(=N)N)NC(=O)[C@H](CC(C)C)NC(=O)[C@H](Cc1ccccc1)NC(=O)[C@H](CCC(=O)O)NC(=O)[C@H](C)NC(=O)[C@H](CC(C)C)NC(=O)[C@H](CCCNC(=N)N)NC(=O)[C@H](CCC(N)=O)NC(=O)[C@@H](NC(=O)[C@H](C)NC(=O)[C@@H]1CSSC[C@H](NC(=O)[C@H](CCCNC(=N)N)NC(=O)[C@H](CCC(=O)O)NC(=O)CC[C@H](NC(=O)CCCCCCCCCCCCCCCCCCC(=O)O)C(=O)O)C(=O)N[C@@H](CC(N)=O)C(=O)N[C@@H]([C@@H](C)O)C(=O)N[C@@H](C)C(=O)N[C@@H]([C@@H](C)O)C(=O)N1)[C@@H](C)O)C(=O)N[C@@H](CC(C)C)C(=O)N1CCC[C@H]1C(=O)N1CCC[C@H]1C(=O)N[C@H](C(=O)N[C@@H](CC(N)=O)C(=O)N[C@H](C(=O)NCC(=O)N[C@@H](CO)C(=O)N[C@@H](CC(N)=O)C(=O)N[C@H](C(=O)N1CCC[C@H]1C(N)=O)[C@@H](C)O)C(C)C)[C@@H](C)O)
5 | 53 pM | 57 pM | {C20 diacid-γGlu}-KCNTATCATQRLANFLRHSSNNFGPILPPTNVGSNTP-NH2 (disulfide 2-7; SMILES CC[C@H](C)[C@H](NC(=O)[C@@H]1CCCN1C(=O)CNC(=O)[C@H](Cc1ccccc1)NC(=O)[C@H](CC(N)=O)NC(=O)[C@H](CC(N)=O)NC(=O)[C@H](CO)NC(=O)[C@H](CO)NC(=O)[C@H](Cc1c[nH]cn1)NC(=O)[C@H](CCCNC(=N)N)NC(=O)[C@H](CC(C)C)NC(=O)[C@H](Cc1ccccc1)NC(=O)[C@H](CC(N)=O)NC(=O)[C@H](C)NC(=O)[C@H](CC(C)C)NC(=O)[C@H](CCCNC(=N)N)NC(=O)[C@H](CCC(N)=O)NC(=O)[C@@H](NC(=O)[C@H](C)NC(=O)[C@@H]1CSSC[C@H](NC(=O)[C@H](CCCCN)NC(=O)CC[C@H](NC(=O)CCCCCCCCCCCCCCCCCCC(=O)O)C(=O)O)C(=O)N[C@@H](CC(N)=O)C(=O)N[C@@H]([C@@H](C)O)C(=O)N[C@@H](C)C(=O)N[C@@H]([C@@H](C)O)C(=O)N1)[C@@H](C)O)C(=O)N[C@@H](CC(C)C)C(=O)N1CCC[C@H]1C(=O)N1CCC[C@H]1C(=O)N[C@H](C(=O)N[C@@H](CC(N)=O)C(=O)N[C@H](C(=O)NCC(=O)N[C@@H](CO)C(=O)N[C@@H](CC(N)=O)C(=O)N[C@H](C(=O)N1CCC[C@H]1C(N)=O)[C@@H](C)O)C(C)C)[C@@H](C)O) [N-alpha-[(S)-4-Carboxy-4-(19-carboxynonadecanoylamino)butyryl]-[Arg17,Pro37]-pramlintide]
6 | 465 pM | 547 pM | {C20 diacid-γGlu}-EERCNTATCATQRLAEFLRHSSQNFGPILPPTNVGSNTP-NH2 (disulfide 4-9; SMILES CC[C@H](C)[C@H](NC(=O)[C@@H]1CCCN1C(=O)CNC(=O)[C@H](Cc1ccccc1)NC(=O)[C@H](CC(N)=O)NC(=O)[C@H](CCC(N)=O)NC(=O)[C@H](CO)NC(=O)[C@H](CO)NC(=O)[C@H](Cc1c[nH]cn1)NC(=O)[C@H](CCCNC(=N)N)NC(=O)[C@H](CC(C)C)NC(=O)[C@H](Cc1ccccc1)NC(=O)[C@H](CCC(=O)O)NC(=O)[C@H](C)NC(=O)[C@H](CC(C)C)NC(=O)[C@H](CCCNC(=N)N)NC(=O)[C@H](CCC(N)=O)NC(=O)[C@@H](NC(=O)[C@H](C)NC(=O)[C@@H]1CSSC[C@H](NC(=O)[C@H](CCCNC(=N)N)NC(=O)[C@H](CCC(=O)O)NC(=O)[C@H](CCC(=O)O)NC(=O)CC[C@H](NC(=O)CCCCCCCCCCCCCCCCCCC(=O)O)C(=O)O)C(=O)N[C@@H](CC(N)=O)C(=O)N[C@@H]([C@@H](C)O)C(=O)N[C@@H](C)C(=O)N[C@@H]([C@@H](C)O)C(=O)N1)[C@@H](C)O)C(=O)N[C@@H](CC(C)C)C(=O)N1CCC[C@H]1C(=O)N1CCC[C@H]1C(=O)N[C@H](C(=O)N[C@@H](CC(N)=O)C(=O)N[C@H](C(=O)NCC(=O)N[C@@H](CO)C(=O)N[C@@H](CC(N)=O)C(=O)N[C@H](C(=O)N1CCC[C@H]1C(N)=O)[C@@H](C)O)C(C)C)[C@@H](C)O)
